Experimental data published in patent US7572764B2, “Uses of chemically-modified cholinesterases for detoxification of organophosporus compounds” (priority 2001, dated 2009).

Experiment: Clearance experiments in mice, pharmacokinetic profiles
Settings: mice; for MRT: mean residence time, noncompartmental model
Procedure: The pharmacokinetic profiles of non-modified and various preparations of PEG-modified AChE were resolved. Clearance experiments in mice (3 to 6 ICR male mice per enzyme sample) and analysis of pharmacokinetic profiles were carried out as described essentially previously [Kronman, C., et al. (1992), Gene 121, 295-304]. The study was approved by the local ethical committee on animal experiments. Mice were injected with the various rHuAChE preparations (40 μg/mouse in 0.2 ml PBS). Residual AChE activity in blood samples was measured and all values were corrected for background hydrolytic activity in the blood (using samples withdrawn 1 hour before performing the experiment). AChE activity values in samples removed immediately after injection were assigned a value of 100% and used for calculation of residual activity. […] This model enables determination of the parameters A and B which represent the fractions of the material removed from the circulation in the first-fast and second-slow elimination phases respectively, and T1/2α and T1/2β which represent the circulatory half-life values of the enzyme in the fast and slow phases. The pharmacokinetic parameters MRT (mean residence time, which reflects the average length of time the administered molecules are retained in the organism) and CL (clearance, which represents the proportionality factor relating the rate of substance elimination to its plasma concentration (CL=dose/area under the concentration-time curve), were independently obtained by analyzing the clearance data according to a noncompartmental pharmacokinetic model using the WinNonlin computer program. The comparative results are set forth in Table 3 below.

B1: PEG-modified sialidase-treated AChE (conjugate, UniProt P22303 32-614, looked up)
Acetylcholinesterase: EGREDAELLVTVRGGRLRGIRLKTPGGPVSAFLGIPFAEPPMGPRRFLPPEPKQPWSGVVDATTFQSVCYQYVDTLYPGFEGTEMWNPNRELSEDCLYLNVWTPYPRPTSPTPVLVWIYGGGFYSGASSLDVYDGRFLVQAERTVLVSMNYRVGAFGFLALPGSREAPGNVGLLDQRLALQWVQENVAAFGGDPTSVTLFGESAGAASVGMHLLSPPSRGLFHRAVLQSGAPNGPWATVGMGEARRRATQLAHLVGCPPGGTGGNDTELVACLRTRPAQVLVNHEWHVLPQESVFRFSFVPVVDGDFLSDTPEALINAGDFHGLQVLVGVVKDEGSYFLVYGAPGFSKDNESLISRAEFLAGVRVGVPQVSDLAAEAVVLHYTDWLHPEDPARLREALSDVVGDHNVVCPVAQLAGRLAAQGARVYAYVFEHRASTLSWPLWMGVPHGYEIEFIFGIPLDPSRNYTAEEKIFAQRLMRYWANFARTGDPNEPRDPKAPQWPPYTAGAQQYVSLDLRPLEVRRGLRAQACAFWNRFLPKLLSATDTLDEAERQWKAEFHRWSSYMVHWKNQFDHYSKQDRCSDL
modifications: PEG; sialidase-treated
- pharmacokinetic behavior after modification by PEG versus non-modified enzyme: significantly improved

B2: PEG-modified mono-glycosylated AChE (conjugate, UniProt P22303 32-614, looked up)
Acetylcholinesterase: EGREDAELLVTVRGGRLRGIRLKTPGGPVSAFLGIPFAEPPMGPRRFLPPEPKQPWSGVVDATTFQSVCYQYVDTLYPGFEGTEMWNPNRELSEDCLYLNVWTPYPRPTSPTPVLVWIYGGGFYSGASSLDVYDGRFLVQAERTVLVSMNYRVGAFGFLALPGSREAPGNVGLLDQRLALQWVQENVAAFGGDPTSVTLFGESAGAASVGMHLLSPPSRGLFHRAVLQSGAPNGPWATVGMGEARRRATQLAHLVGCPPGGTGGNDTELVACLRTRPAQVLVNHEWHVLPQESVFRFSFVPVVDGDFLSDTPEALINAGDFHGLQVLVGVVKDEGSYFLVYGAPGFSKDNESLISRAEFLAGVRVGVPQVSDLAAEAVVLHYTDWLHPEDPARLREALSDVVGDHNVVCPVAQLAGRLAAQGARVYAYVFEHRASTLSWPLWMGVPHGYEIEFIFGIPLDPSRNYTAEEKIFAQRLMRYWANFARTGDPNEPRDPKAPQWPPYTAGAQQYVSLDLRPLEVRRGLRAQACAFWNRFLPKLLSATDTLDEAERQWKAEFHRWSSYMVHWKNQFDHYSKQDRCSDL
modifications: PEG; mono-glycosylated
- pharmacokinetic behavior after modification by PEG versus non-modified enzyme: significantly improved

B3: PEG-modified fully sialylated AChE (conjugate, UniProt P22303 32-614, looked up)
Acetylcholinesterase: EGREDAELLVTVRGGRLRGIRLKTPGGPVSAFLGIPFAEPPMGPRRFLPPEPKQPWSGVVDATTFQSVCYQYVDTLYPGFEGTEMWNPNRELSEDCLYLNVWTPYPRPTSPTPVLVWIYGGGFYSGASSLDVYDGRFLVQAERTVLVSMNYRVGAFGFLALPGSREAPGNVGLLDQRLALQWVQENVAAFGGDPTSVTLFGESAGAASVGMHLLSPPSRGLFHRAVLQSGAPNGPWATVGMGEARRRATQLAHLVGCPPGGTGGNDTELVACLRTRPAQVLVNHEWHVLPQESVFRFSFVPVVDGDFLSDTPEALINAGDFHGLQVLVGVVKDEGSYFLVYGAPGFSKDNESLISRAEFLAGVRVGVPQVSDLAAEAVVLHYTDWLHPEDPARLREALSDVVGDHNVVCPVAQLAGRLAAQGARVYAYVFEHRASTLSWPLWMGVPHGYEIEFIFGIPLDPSRNYTAEEKIFAQRLMRYWANFARTGDPNEPRDPKAPQWPPYTAGAQQYVSLDLRPLEVRRGLRAQACAFWNRFLPKLLSATDTLDEAERQWKAEFHRWSSYMVHWKNQFDHYSKQDRCSDL
modifications: PEG; fully sialylated
- pharmacokinetic behavior after modification by PEG versus non-modified enzyme: significantly improved

B4: PEG-modified non-glycosylated AChE (conjugate, UniProt P22303 32-614, looked up)
Acetylcholinesterase: EGREDAELLVTVRGGRLRGIRLKTPGGPVSAFLGIPFAEPPMGPRRFLPPEPKQPWSGVVDATTFQSVCYQYVDTLYPGFEGTEMWNPNRELSEDCLYLNVWTPYPRPTSPTPVLVWIYGGGFYSGASSLDVYDGRFLVQAERTVLVSMNYRVGAFGFLALPGSREAPGNVGLLDQRLALQWVQENVAAFGGDPTSVTLFGESAGAASVGMHLLSPPSRGLFHRAVLQSGAPNGPWATVGMGEARRRATQLAHLVGCPPGGTGGNDTELVACLRTRPAQVLVNHEWHVLPQESVFRFSFVPVVDGDFLSDTPEALINAGDFHGLQVLVGVVKDEGSYFLVYGAPGFSKDNESLISRAEFLAGVRVGVPQVSDLAAEAVVLHYTDWLHPEDPARLREALSDVVGDHNVVCPVAQLAGRLAAQGARVYAYVFEHRASTLSWPLWMGVPHGYEIEFIFGIPLDPSRNYTAEEKIFAQRLMRYWANFARTGDPNEPRDPKAPQWPPYTAGAQQYVSLDLRPLEVRRGLRAQACAFWNRFLPKLLSATDTLDEAERQWKAEFHRWSSYMVHWKNQFDHYSKQDRCSDL
modifications: PEG; non-glycosylated
- pharmacokinetic behavior after modification by PEG versus non-modified enzyme: significantly improved

B5: partially desialylated BChE (protein, UniProt P06276 29-602, looked up)
Cholinesterase: EDDIIIATKNGKVRGMNLTVFGGTVTAFLGIPYAQPPLGRLRFKKPQSLTKWSDIWNATKYANSCCQNIDQSFPGFHGSEMWNPNTDLSEDCLYLNVWIPAPKPKNATVLIWIYGGGFQTGTSSLHVYDGKFLARVERVIVVSMNYRVGALGFLALPGNPEAPGNMGLFDQQLALQWVQKNIAAFGGNPKSVTLFGESAGAASVSLHLLSPGSHSLFTRAILQSGSFNAPWAVTSLYEARNRTLNLAKLTGCSRENETEIIKCLRNKDPQEILLNEAFVVPYGTPLSVNFGPTVDGDFLTDMPDILLELGQFKKTQILVGVNKDEGTAFLVYGAPGFSKDNNSIITRKEFQEGLKIFFPGVSEFGKESILFHYTDWVDDQRPENYREALGDVVGDYNFICPALEFTKKFSEWGNNAFFYYFEHRSSKLPWPEWMGVMHGYEIEFVFGLPLERRDNYTKAEEILSRSIVKRWANFAKYGNPNETQNNSTSWPVFKSTEQKYLTLNTESTRIMTKLRAQQCRFWTSFFPKVLEMTGNIDEAEWEWKAGFHRWNNYMMDWKNQFNDYTSKKESCVGL
modifications: partially desialylated
- MRT: 2.67 h

B6: non-treated serum-derived BChE (protein, UniProt P06276 29-602, looked up)
Cholinesterase: EDDIIIATKNGKVRGMNLTVFGGTVTAFLGIPYAQPPLGRLRFKKPQSLTKWSDIWNATKYANSCCQNIDQSFPGFHGSEMWNPNTDLSEDCLYLNVWIPAPKPKNATVLIWIYGGGFQTGTSSLHVYDGKFLARVERVIVVSMNYRVGALGFLALPGNPEAPGNMGLFDQQLALQWVQKNIAAFGGNPKSVTLFGESAGAASVSLHLLSPGSHSLFTRAILQSGSFNAPWAVTSLYEARNRTLNLAKLTGCSRENETEIIKCLRNKDPQEILLNEAFVVPYGTPLSVNFGPTVDGDFLTDMPDILLELGQFKKTQILVGVNKDEGTAFLVYGAPGFSKDNNSIITRKEFQEGLKIFFPGVSEFGKESILFHYTDWVDDQRPENYREALGDVVGDYNFICPALEFTKKFSEWGNNAFFYYFEHRSSKLPWPEWMGVMHGYEIEFVFGLPLERRDNYTKAEEILSRSIVKRWANFAKYGNPNETQNNSTSWPVFKSTEQKYLTLNTESTRIMTKLRAQQCRFWTSFFPKVLEMTGNIDEAEWEWKAGFHRWNNYMMDWKNQFNDYTSKKESCVGL
- circulatory residence time (in words): resides in the circulation for extended periods of time

B7: FBS-AChE (protein, UniProt P23795 31-613, looked up)
Acetylcholinesterase: EGPEDPELLVMVRGGRLRGLRLMAPRGPVSAFLGIPFAEPPVGPRRFLPPEPKRPWPGVLNATAFQSVCYQYVDTLYPGFEGTEMWNPNRELSEDCLYLNVWTPYPRPSSPTPVLVWIYGGGFYSGASSLDVYDGRFLTQAEGTVLVSMNYRVGAFGFLALPGSREAPGNVGLLDQRLALQWVQENVAAFGGDPTSVTLFGESAGAASVGMHLLSPPSRGLFHRAVLQSGAPNGPWATVGVGEARRRATLLARLVGCPPGGAGGNDTELVACLRARPAQDLVDHEWRVLPQESVFRFSFVPVVDGDFLSDTPEALINAGDFHGLQVLVGVVKDEGSYFLVYGAPGFSKDNESLISRAQFLAGVRVGVPQASDLAAEAVVLHYTDWLHPEDPARLREALSDVVGDHNVVCPVAQLAGRLAAQGARVYAYIFEHRASTLSWPLWMGVPHGYEIEFIFGLPLEPSLNYTIEERTFAQRLMRYWANFARTGDPNDPRDPKAPQWPPYTAGAQQYVSLNLRPLEVRRGLRAQACAFWNRFLPKLLSATDTLDEAERQWKAEFHRWSSYMVHWKNQFDHYSKQDRCSDL
- MRT: 22.33 h

B8: PEG modified FBS-AChE (conjugate, UniProt P23795 31-613, looked up)
Acetylcholinesterase: EGPEDPELLVMVRGGRLRGLRLMAPRGPVSAFLGIPFAEPPVGPRRFLPPEPKRPWPGVLNATAFQSVCYQYVDTLYPGFEGTEMWNPNRELSEDCLYLNVWTPYPRPSSPTPVLVWIYGGGFYSGASSLDVYDGRFLTQAEGTVLVSMNYRVGAFGFLALPGSREAPGNVGLLDQRLALQWVQENVAAFGGDPTSVTLFGESAGAASVGMHLLSPPSRGLFHRAVLQSGAPNGPWATVGVGEARRRATLLARLVGCPPGGAGGNDTELVACLRARPAQDLVDHEWRVLPQESVFRFSFVPVVDGDFLSDTPEALINAGDFHGLQVLVGVVKDEGSYFLVYGAPGFSKDNESLISRAQFLAGVRVGVPQASDLAAEAVVLHYTDWLHPEDPARLREALSDVVGDHNVVCPVAQLAGRLAAQGARVYAYIFEHRASTLSWPLWMGVPHGYEIEFIFGLPLEPSLNYTIEERTFAQRLMRYWANFARTGDPNDPRDPKAPQWPPYTAGAQQYVSLNLRPLEVRRGLRAQACAFWNRFLPKLLSATDTLDEAERQWKAEFHRWSSYMVHWKNQFDHYSKQDRCSDL
modifications: PEG
- pharmacokinetic behavior after modification by PEG versus non-modified enzyme: significantly improved
